Experimental data as given in patent publication US20110271408A1.

Biological target: HAB1 (PP2C used in the in vitro phosphatase activity assays) (UniProt Q9CAJ0)
Test: cell-based or functional assay

HAB1 (PP2C used in the in vitro phosphatase activity assays), sequence (Q9CAJ0 23-511 limits assumed): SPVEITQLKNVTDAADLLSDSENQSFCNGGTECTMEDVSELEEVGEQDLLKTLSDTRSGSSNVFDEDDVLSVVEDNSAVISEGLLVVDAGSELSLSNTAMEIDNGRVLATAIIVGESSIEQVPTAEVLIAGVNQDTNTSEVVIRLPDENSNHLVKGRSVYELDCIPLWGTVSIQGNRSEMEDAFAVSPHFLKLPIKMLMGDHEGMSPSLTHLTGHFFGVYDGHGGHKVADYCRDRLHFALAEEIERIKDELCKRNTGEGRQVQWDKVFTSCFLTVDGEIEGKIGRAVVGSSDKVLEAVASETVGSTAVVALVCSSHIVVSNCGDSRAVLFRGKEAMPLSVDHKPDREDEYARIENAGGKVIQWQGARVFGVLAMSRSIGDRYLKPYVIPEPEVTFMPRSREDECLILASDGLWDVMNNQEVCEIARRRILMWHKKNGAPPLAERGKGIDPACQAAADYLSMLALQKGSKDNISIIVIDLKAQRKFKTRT

- in vitro receptor assay (PP2C activity, 2:1 receptor to phosphatase); IC50 of fenhexamid: 400 nM
Substance: PYR1 K59R, Y120H, M158I triple mutant (recombinant protein) (from UniProt O49686 1-191) (receptor)
